Each block holds one binder with its values, some of them ahead of it. Where no end group is shown, it is not given here. The star is where a group is joined. Biotin = O=C1N[C@H]2[C@H](CS[C@H]2CCCCC(=O)*)N1
Tests used:
Peptide 9 = molecular target: T1, Peptide 9 (human); test: solid phase ELISA; biotinylated peptide on plate, antibody 2 ug/ml
T1 peptide: Biotin-IEESTTVVTTQSAEVGAA
Procedure: (§1) (1) The peptides shown in Table 2 were synthesized, and biotin was added to the N-terminal side. (2) The synthesized peptides were dissolved in 80% DMSO solution and further diluted to 1 μg/ml with PBST. (3) After washing an ELISA plate three times with PBST, a biotinylated peptide was added thereto at 100 μL/well, and the plate was allowed to stand at room temperature for 1 hour to immobilize the peptide. Thereafter, the plate was washed three times with PBST, and Buffer I′ (10 mM NaH₂PO₄.2H₂O, 149.7 mM NaCl, 2.5 mM EDTA 2Na, 0.10% BSA, pH 7.0) was added thereto at 200 μL/well to prepare a plate stored at 4° C. overnight. (4) The plate was washed three times with PBST, and an antibody diluted to 2 μg/ml was added thereto at 50 μL/well, followed by shaking at room temperature for 1 hour. (5) The plate was washed three times with PBST, and an Anti-Mouse IgG POD antibody diluted about 5000 fold with Buffer I′ (10 mM NaH₂PO₄.2H₂O, 149.7 mM NaCl, 2.5 mM EDTA 2Na, 0.10% BSA, pH 7.0) was added thereto at 50 μL/well, followed by shaking at room temperature for 1 hour. (6) The plate was washed three times with PBST, TMB Mix (1-step Ultra TMB-ELISA (Thermo Scientific):3% H₂O₂: Phosphate-Citrate buffer (Sigma)=15:0.15:14.85) was added thereto at 100 μL/well, and the mixture was reacted at room temperature for 10 minutes. Thereafter, 1 M H₂SO₄ was added thereto at 100 μL/well to stop the reaction. (7) Absorbance of the reaction solution at 450 nm was measured with a plate reader.

Peptide 4 = molecular target: T2, Peptide 4 (human); test: as above
T2 peptide: Biotin-LAKIMADIRAQYDELARK
Procedure: as §1

rfCK18 (127-430) = molecular target: T3, rfCK18 (127-430) (human, UniProt P05783 127-430); test: solid phase ELISA; antigen (0.3 ug/mL) captured by anti-GST or penta HIS antibody on plate, antibody 5 to 10 ng/mL
T3 construct: Bought (Proteintech Inc.); captured through an anti-GST or penta HIS antibody, the tag is not described
T3 sequence: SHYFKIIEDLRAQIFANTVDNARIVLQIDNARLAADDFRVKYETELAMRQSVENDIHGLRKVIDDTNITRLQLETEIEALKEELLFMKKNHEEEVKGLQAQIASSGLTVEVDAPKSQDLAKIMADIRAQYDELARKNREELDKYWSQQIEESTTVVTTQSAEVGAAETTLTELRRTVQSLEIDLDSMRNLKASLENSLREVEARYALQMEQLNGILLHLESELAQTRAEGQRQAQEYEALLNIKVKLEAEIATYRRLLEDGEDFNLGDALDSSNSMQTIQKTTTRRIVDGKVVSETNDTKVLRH
Procedure: (1) An ANTI GST antibody or a penta HIS antibody was added to an ELISA plat at 2.5 μg/mL and 50 μL/well, and the plate was allowed to stand at 4° C. overnight to immobilize the antibody. Thereafter, the plate was washed three times with PBST, and Buffer I′ (10 mM NaH₂PO₄.2H₂O, 149.7 mM NaCl, 2.5 mM EDTA 2Na, 0.10% BSA, pH 7.0) was added thereto at 200 μL/well to prepare a plate stored at 4° C. overnight. […] (3) The plate was washed three times with PBST, and 50 μL each of each antigen diluent was added thereto, followed by shaking for 45 minutes. […] (6) The plate was washed three times with PBST, and 15000-fold diluted Peroxidase-conjugated Affinipure F(ab)′2 Fragment Goat Anti-Mouse IgG (H+L) (Jackson) was added thereto at 50 μL/well, followed by shaking for 45 minutes. (7) The plate was washed three times with PBST, TMB Mix (1-step Ultra TMB-ELISA (Thermo Scientific):3% H₂O₂: Phosphate-Citrate buffer (Sigma)=15:0.15:14.85) was added thereto at 100 μL/well, and the mixture was reacted at room temperature for 10 minutes. Thereafter, 1 M H₂SO₄ was added thereto at 100 μL/well to stop the reaction. (8) Absorbance of the reaction solution at 450 nm was measured with a plate reader.

[1] = molecular target: T4, fCK18 in apoptosis-induced HepG2 cell culture supernatant (human, UniProt P05783 239-397); test: plate ELISA with K18-624 magnetic microbeads, K18-328Fab-ALP detector
T4 construct: Natural CK18 fragment from the culture supernatant of apoptosis-induced HepG2 cells (band around 18 KDa); also called fCK18 in apoptosis-inducing cells
T4 sequence: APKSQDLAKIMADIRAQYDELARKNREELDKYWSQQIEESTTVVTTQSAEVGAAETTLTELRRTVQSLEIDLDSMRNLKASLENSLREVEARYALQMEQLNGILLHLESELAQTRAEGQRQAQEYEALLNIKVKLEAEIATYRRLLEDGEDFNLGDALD
Procedure: (§2) Measurement samples of 3-fold dilution series (3-fold to 6561-fold dilution) were prepared from the apoptosis-induced HepG2 cell culture supernatant with a diluent (TBS, pH 7.5, 2% BSA), and fCK18 was measured. […] Based on the prepared calibration curve, fCK18 in the measurement sample was measured.
(§3) This solution was added to an ELISA plate at 25 μL/well, then each measurement sample was added at 25 μL/well, and the plate was incubated (1500 rpm, RT, 20 min). […] (3) After washing the plate, the HISCL (registered trademark) R4 reagent was added thereto at 50 μL/well, and then the mixture was stirred (1500 rpm, RT, 1 min). Thereafter, the HISCL (registered trademark) R5 reagent was added at 100 μL/well, and then the mixture was stirred (1000 rpm, RT, 10 sec). (4) Luminescence intensity was measured with a plate reader.

[2] = molecular target: T4, fCK18 in apoptosis-induced HepG2 cell …; test: plate ELISA with K18-624 magnetic microbeads, K18-328Fab-ALP detector; fCK18 0.74 ng/mL
Procedure: as §2, §3

[3] = molecular target: T4, fCK18 in apoptosis-induced HepG2 cell …; test: HISCL sandwich immunoassay; K18-624 magnetic microbeads capture, K18-328Fab-ALP detector; fCK18 182.28 ng/mL
[4] = molecular target: T4, fCK18 in apoptosis-induced HepG2 cell …; test: plate ELISA with K18-624 magnetic microbeads, K18-328Fab-ALP detector; fCK18 2.23 ng/mL
Procedure: as §2, §3

Abs450 (Peptide 9): -0.01 | Abs450 (Peptide 4): 0.01 | Abs450 (rfCK18 (127-430)): 0.89
B1: K18-328 antibody (antibody, V domains shown)
VH: QVHLQQSAAELARPGASVKMSCKASGYTFTNYTIHWIKQRPGQGLEWIGYINPSSGYTDYNQNFKDKTTLTADKSSTTVYMQLSSLTSEDSAVYYCARQIPFAYWGQGTLVTVSA
VL: not shown
notes: Mouse monoclonal antibody from a hybridoma (immunogen full length rCK18)

fCK18 concentration detectable (S/N ratio of 2 or more) [1]: ≥ 0.09 ng/mL | fold detection sensitivity compared with Comparative Example 1 (M30 antibody) [1]: ~24 fold | S/N ratio [2]: 16.1 | S/N ratio [3]: 2070 | S/N ratio [4]: 47.3
B2: K18-624 antibody (antibody, V domains shown)
VH: DVQLVESGGGLVQPGGSRKLSCAASGFTFSSFGMHWVRQAPEKGLEWVAYISSGSTTIYYADTVKGRFTISRDNPKNTLFLQMTSLRSEDTAMYYCARRGMITTGAWFAYWGQGTLVTVSA
VL: DILLTQSPAILSVSPGERVSFSCRASQRIGTSIHWYQQRTNGSPRLLIKYASESISGIPSRFSGSGSGTDFTLSINSVESEDIADYYCQQSYIWPFTFGSGTKLEIK
notes: Mouse monoclonal antibody from a hybridoma (Balb/C mouse immunised with Peptide 1-KLH)
